From FireProtDB (doi:10.1021/bi034798l)

Conditions: Homo sapiens; pH 7.4; Thermal; CD; Phosphate buffer saline; whole UniProt chain shown

B1: SH2 domain-containing protein 1A wild type, O60880 (protein)
chain: MDAVAVYHGKISRETGEKLLLATGLDGSYLLRDSESVPGVYCLCVLYHGYIYTYRVSQTETGSWSAETAPGVHKRYFRKIKNLISAFQKPDQGIVIPLQYPVEKKSSARSTQGTTGIREDPDVCLKAP
- Tm: 57.8 °C
